Measurements reported in IntAct's records for PubMed 31515488.

B1: Ceramide transfer protein (Homo sapiens), Q9Y5P4 (parent)
chain: MSDNQSWNSSGSEEDPETESGPPVERCGVLSKWTNYIHGWQDRWVVLKNNALSYYKSEDETEYGCRGSICLSKAVITPHDFDECRFDISVNDSVWYLRAQDPDHRQQWIDAIEQHKTESGYGSESSLRRHGSMVSLVSGASGYSATSTSSFKKGHSLREKLAEMETFRDILCRQVDTLQKYFDACADAVSKDELQRDKVVEDDEDDFPTTRSDGDFLHSTNGNKEKLFPHVTPKGINGIDFKGEAITFKATTAGILATLSHCIELMVKREDSWQKRLDKETEKKRRTEEAYKNAMTELKKKSHFGGPDYEEGPNSLINEEEFFDAVEAALDRQDKIEEQSQSEKVRLHWPTSLPSGDAFSSVGTHRFVQKPYSRSSSMSSIDLVSASDDVHRFSSQVEEMVQNHMTYSLQDVGGDANWQLVVEEGEMKVYRREVEENGIVLDPLKATHAVKGVTGHEVCNYFWNVDVRNDWETTIENFHVVETLADNAIIIYQTHKRVWPASQRDVLYLSVIRKIPALTENDPETWIVCNFSVDHDSAPLNNRCVRAKINVAMICQTLVSPPEGNQEISRDNILCKITYVANVNPGGWAPASVLRAVAKREYPKFLKRFTSYVQEKTAGKPILF
B2: Four and a half LIM domains protein 3 (Homo sapiens), Q13643 (parent)
chain: MSESFDCAKCNESLYGRKYIQTDSGPYCVPCYDNTFANTCAECQQLIGHDSRELFYEDRHFHEGCFRCCRCQRSLADEPFTCQDSELLCNDCYCSAFSSQCSACGETVMPGSRKLEYGGQTWHEHCFLCSGCEQPLGSRSFVPDKGAHYCVPCYENKFAPRCARCSKTLTQGGVTYRDQPWHRECLVCTGCQTPLAGQQFTSRDEDPYCVACFGELFAPKCSSCKRPIVGLGGGKYVSFEDRHWHHNCFSCARCSTSLVGQGFVPDGDQVLCQGCSQAGP
partner: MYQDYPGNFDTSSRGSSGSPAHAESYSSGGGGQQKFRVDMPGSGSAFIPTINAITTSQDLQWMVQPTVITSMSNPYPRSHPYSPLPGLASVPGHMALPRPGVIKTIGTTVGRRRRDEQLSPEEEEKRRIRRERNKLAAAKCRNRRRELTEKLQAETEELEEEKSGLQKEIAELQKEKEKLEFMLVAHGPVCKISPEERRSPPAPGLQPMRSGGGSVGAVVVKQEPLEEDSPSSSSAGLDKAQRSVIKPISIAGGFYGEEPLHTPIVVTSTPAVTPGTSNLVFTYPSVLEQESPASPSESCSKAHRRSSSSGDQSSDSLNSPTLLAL
B3: Zinc finger protein Aiolos (Homo sapiens), Q9UKT9-1 (parent)
chain: MEDIQTNAELKSTQEQSVPAESAAVLNDYSLTKSHEMENVDSGEGPANEDEDIGDDSMKVKDEYSERDENVLKSEPMGNAEEPEIPYSYSREYNEYENIKLERHVVSFDSSRPTSGKMNCDVCGLSCISFNVLMVHKRSHTGERPFQCNQCGASFTQKGNLLRHIKLHTGEKPFKCHLCNYACQRRDALTGHLRTHSVEKPYKCEFCGRSYKQRSSLEEHKERCRTFLQSTDPGDTASAEARHIKAEMGSERALVLDRLASNVAKRKSSMPQKFIGEKRHCFDVNYNSSYMYEKESELIQTRMMDQAINNAISYLGAEALRPLVQTPPAPTSEMVPVISSMYPIALTRAEMSNGAPQELEKKSIHLPEKSVPSERGLSPNNSGHDSTDTDSNHEERQNHIYQQNHMVLSRARNGMPLLKEVPRSYELLKPPPICPRDSVKVINKEGEVMDVYRCDHCRVLFLDYVMFTIHMGCHGFRDPFECNMCGYRSHDRYEFSSHIARGEHRALLK
partner: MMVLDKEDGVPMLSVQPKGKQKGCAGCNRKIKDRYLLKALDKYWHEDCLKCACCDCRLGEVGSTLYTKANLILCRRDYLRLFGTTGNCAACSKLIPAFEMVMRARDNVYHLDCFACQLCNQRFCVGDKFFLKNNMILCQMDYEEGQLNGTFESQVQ
B4: Coiled-coil domain-containing protein 172 (Homo sapiens), P0C7W6 (parent)
chain: MSLESLFQHIIFTEHQAEESRRLMREVRSEITRCREKIKKATEELNEEKIKLESKVQQFFEKSFFLQLLKAHENALEKQYSEITNHRNMLLQTFEAIKKQMIEEEDKFIKEITDFNNDYEITKKRELLMKENVKIEISDLENQANMLKSEMKSMEHDSSQLNELQKQKSELIQELFTLQRKLKVFEDEENESICTTKYLEAEKIKISEKPQNDTECLRLKKELELYKEDDMESVYEALQTEIEFLELTLAQKDLQESK

Variants of: B1
Conditions: with rtn4_human RTN4, Q9NQC3
rtn4_human RTN4, Q9NQC3, sequence (Q9NQC3 whole entry): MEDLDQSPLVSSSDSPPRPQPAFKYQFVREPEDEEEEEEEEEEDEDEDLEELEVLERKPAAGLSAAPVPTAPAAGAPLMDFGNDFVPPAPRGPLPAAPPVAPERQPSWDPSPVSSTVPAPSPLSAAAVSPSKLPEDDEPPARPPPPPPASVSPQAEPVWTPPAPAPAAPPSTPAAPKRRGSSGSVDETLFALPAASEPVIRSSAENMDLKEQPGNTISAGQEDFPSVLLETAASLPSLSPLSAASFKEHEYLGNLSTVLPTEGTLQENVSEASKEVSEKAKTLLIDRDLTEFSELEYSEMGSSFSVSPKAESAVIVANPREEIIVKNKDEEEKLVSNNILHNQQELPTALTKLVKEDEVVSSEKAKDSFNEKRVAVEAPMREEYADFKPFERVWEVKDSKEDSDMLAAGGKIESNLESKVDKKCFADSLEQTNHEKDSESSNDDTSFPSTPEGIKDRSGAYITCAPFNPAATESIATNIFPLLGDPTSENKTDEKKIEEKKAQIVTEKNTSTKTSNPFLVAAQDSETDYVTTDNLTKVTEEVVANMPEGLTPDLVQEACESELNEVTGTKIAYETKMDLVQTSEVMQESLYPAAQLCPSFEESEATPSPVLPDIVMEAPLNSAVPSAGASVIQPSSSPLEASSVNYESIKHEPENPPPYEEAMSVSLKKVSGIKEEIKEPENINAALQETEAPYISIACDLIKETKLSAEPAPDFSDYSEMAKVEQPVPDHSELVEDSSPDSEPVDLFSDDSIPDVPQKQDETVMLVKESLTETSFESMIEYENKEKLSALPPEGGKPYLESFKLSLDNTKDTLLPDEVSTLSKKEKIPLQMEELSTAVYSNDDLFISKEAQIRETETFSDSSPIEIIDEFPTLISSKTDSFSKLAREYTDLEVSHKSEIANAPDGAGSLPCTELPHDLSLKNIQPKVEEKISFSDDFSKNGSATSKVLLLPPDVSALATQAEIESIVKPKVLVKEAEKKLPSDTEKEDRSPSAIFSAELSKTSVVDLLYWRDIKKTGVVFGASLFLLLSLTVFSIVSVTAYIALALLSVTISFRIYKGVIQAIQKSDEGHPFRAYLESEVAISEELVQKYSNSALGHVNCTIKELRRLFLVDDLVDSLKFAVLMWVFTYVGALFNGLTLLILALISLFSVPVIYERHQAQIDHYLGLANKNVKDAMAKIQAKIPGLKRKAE

Variant | effect of a mutation on the interaction
R128H | with no effect

Variants of: B1
Conditions: with rtn3_human RTN3, O95197
rtn3_human RTN3, O95197, sequence (O95197 whole entry): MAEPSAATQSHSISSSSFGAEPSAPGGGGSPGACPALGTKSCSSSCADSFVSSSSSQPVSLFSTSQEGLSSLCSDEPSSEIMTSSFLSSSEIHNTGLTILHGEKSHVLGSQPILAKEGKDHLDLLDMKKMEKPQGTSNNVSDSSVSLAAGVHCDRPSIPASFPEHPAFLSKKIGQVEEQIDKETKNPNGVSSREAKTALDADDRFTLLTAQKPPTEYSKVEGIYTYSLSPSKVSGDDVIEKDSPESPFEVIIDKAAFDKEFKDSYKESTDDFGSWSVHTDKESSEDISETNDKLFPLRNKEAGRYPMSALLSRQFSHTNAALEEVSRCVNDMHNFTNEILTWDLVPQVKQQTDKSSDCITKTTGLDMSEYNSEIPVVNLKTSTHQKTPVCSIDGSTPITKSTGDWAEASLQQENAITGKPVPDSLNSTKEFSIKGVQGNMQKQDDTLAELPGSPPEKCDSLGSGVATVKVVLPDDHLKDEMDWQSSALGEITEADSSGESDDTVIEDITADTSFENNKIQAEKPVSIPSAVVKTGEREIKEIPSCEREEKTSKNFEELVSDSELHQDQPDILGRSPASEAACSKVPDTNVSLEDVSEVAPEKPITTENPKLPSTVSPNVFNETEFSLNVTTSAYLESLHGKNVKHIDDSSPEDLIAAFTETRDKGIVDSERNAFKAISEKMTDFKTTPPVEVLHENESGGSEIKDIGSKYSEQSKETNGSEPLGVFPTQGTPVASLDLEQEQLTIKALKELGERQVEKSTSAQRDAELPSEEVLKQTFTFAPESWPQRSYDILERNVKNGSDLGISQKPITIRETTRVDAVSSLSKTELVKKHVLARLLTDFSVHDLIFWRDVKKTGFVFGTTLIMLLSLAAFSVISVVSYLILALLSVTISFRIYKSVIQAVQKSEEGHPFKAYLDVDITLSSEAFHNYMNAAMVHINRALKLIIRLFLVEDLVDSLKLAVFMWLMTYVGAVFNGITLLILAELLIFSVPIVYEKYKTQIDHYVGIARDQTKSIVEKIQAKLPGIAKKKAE

Variant | effect of a mutation on the interaction
R128H | with no effect

Variants of: B1
Conditions: with ar6p1_human ARL6IP1, Q15041
ar6p1_human ARL6IP1, Q15041, sequence (Q15041 whole entry): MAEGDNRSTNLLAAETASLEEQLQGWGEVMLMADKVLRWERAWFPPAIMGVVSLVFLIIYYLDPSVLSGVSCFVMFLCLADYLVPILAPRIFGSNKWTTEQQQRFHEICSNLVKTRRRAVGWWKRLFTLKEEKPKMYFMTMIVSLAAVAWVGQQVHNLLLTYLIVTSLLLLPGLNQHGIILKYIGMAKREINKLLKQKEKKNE

Variant | effect of a mutation on the interaction
R128H | with no effect

Variants of: B2
Conditions: with fosl2_human FOSL2, P15408

Variant | effect of a mutation on the interaction
R226H | with no effect

Variants of: B3
Conditions: with rbtn1_human LMO1, P25800

Variant | effect of a mutation on the interaction
I338M | with no effect

Variants of: B3
Conditions: with rbtn1_human LMO1, P25800
Remark: another data set of the same source

Variant | effect of a mutation on the interaction
N119D | with no effect
A24V | with no effect

Variants of: B4
Conditions: with mesh1_human HDDC3, Q8N4P3
mesh1_human HDDC3, Q8N4P3, sequence (Q8N4P3 whole entry): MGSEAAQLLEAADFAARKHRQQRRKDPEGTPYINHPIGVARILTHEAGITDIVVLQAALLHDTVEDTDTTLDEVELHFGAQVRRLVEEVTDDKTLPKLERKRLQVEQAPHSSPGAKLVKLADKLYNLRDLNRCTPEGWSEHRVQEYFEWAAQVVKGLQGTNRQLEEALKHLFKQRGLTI

Variant | effect of a mutation on the interaction
N145K | with no effect
I10V | with no effect

Variants of: B4
Conditions: with fa13c_human FAM13C

Variant | effect of a mutation on the interaction
I10V | with no effect

Variants of: B4
Conditions: with dctn2_human DCTN2, Q13561
dctn2_human DCTN2, Q13561, sequence (Q13561 whole entry): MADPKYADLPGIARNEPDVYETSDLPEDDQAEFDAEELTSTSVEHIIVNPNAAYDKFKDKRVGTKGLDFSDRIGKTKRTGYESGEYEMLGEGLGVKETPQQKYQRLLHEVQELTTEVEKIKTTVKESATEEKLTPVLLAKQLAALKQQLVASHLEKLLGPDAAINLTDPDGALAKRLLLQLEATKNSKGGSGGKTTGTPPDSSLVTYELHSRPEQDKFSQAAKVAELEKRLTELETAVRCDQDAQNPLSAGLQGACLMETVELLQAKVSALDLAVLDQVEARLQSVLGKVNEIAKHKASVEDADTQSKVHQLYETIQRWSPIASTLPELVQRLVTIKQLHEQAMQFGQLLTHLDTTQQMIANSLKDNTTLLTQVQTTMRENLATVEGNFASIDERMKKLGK

Variant | effect of a mutation on the interaction
I10V | with no effect

Variants of: B4
Conditions: with smce1_human SMARCE1, Q969G3
smce1_human SMARCE1, Q969G3, sequence (Q969G3 whole entry): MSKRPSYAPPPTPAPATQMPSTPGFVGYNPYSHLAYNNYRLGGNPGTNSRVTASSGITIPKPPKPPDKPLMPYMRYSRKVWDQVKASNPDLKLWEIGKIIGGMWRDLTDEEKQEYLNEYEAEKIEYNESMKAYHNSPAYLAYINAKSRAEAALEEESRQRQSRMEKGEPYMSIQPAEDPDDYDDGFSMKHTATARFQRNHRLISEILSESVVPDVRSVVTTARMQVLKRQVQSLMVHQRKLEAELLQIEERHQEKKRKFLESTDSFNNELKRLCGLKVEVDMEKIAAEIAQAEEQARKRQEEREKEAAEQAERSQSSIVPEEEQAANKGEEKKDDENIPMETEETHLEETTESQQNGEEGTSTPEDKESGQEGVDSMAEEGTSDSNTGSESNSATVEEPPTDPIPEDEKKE

Variant | effect of a mutation on the interaction
I10V | with no effect
